Patent US20250034594A1, “RNA-GUIDED GENOME RECOMBINEERING AT KILOBASE SCALE” (THE BOARD OF TRUSTEES OF THE LELAND STANFORD JUNIOR …, priority 2021, published 2025)

B1: SSAP_71: SEQ ID NO: 240 (protein)
chain: SNNELLAKPVEFEVNGEAVKLTGKTVKNFLVSGNGEVSDQEVVMFINLCKYQKLNPFLNEAYLVKFKSKSGPDKPAQVIVSKEAFMKRAEKHPNYEGFEAGIIVERDGQLVDIEGAIKLTNDKLVGGWARVYRSDRQKPITTRISLSEFSKGQSTWNSMPLTMIRKSAIVNAQREAFPETLGALYTEDDAKLDTTSSHDQEQVIEQEIKTKANQEVIDVEYTEESEQKSPQQEQTETTQAGPGF
B2: SSAP_316: SEQ ID NO: 485; Companilactobacillus kedongensis (protein, listed as Companilactobacillus kedongensis)
chain: MKDLARIPVKELVRSDTIKSKFNDVLGKRAPQFISSIVNIVNSNQDLKNVDQTSVISSALVAASLDLPINQSFGYMYLVPYSGKAQPQMGYKGYIQLAQRSGQYKRLNAISVSKEKVPDKMVIFIPDYRMEEAETQIDMYQDHIEDVKAGRVEPTRCGKCDYCKSTAKLGKIVSMDDLID
B3: SSAP_22: SEQ ID NO: 191 (protein)
chain: SNELMTKAVTYEVNNEEVKLSGQIVKQYLTSGQAVTDQEVTMFIQLCRYQHLNPFLNEAYLVKFNGKPAQIITSKEAFMKRAESNPNYAGLKAGCIVERNGELIYTEGAFTLKTDNILGAWADVIRKDRREPTHVEISMDEFSKSQATWKSMPATMIRKTAIVNALREAFPQDLGALYTEDDKNPNEATQTTYKQEPEVNTTKTADVLAKKFSGAPQIKSVENVQESEEESNNASNHGEATEPVNNVEEPTATAEVEQGQLL
B4: SSAP_11: SEQ ID NO: 180; Bet Lactococcus phage phiLC3 (protein, listed as Lactococcus lactis)
chain: ANEIDIYDAKNLNTATVKKFLKGGGQASDEELAMLLAISRNQNMNPFMKEVYFIKYGSAAAQIVVSRDFYRKRAFQNPNFAGIEVGVIVLNKDGVLEHNEGTFKTKDQELVGAWARVHLKNTEIPVYVAVSYDEYVQMKNGQPNSMWTNKPCTMLGKVAESQALRMAFPAEFSGTYGEEEYPEPEKEPREVNGVKEPDRAQIESFDKENYAARKIEELKEKAQPQKEFVEEIGEAIDEITAEDF
B5: SSAP_178: SEQ ID NO: 347; Streptomyces sp. MZ04 (protein, listed as Streptomyces sp.)
chain: STNLAARVEARRQNPTTKQPARRGKAAQQPTLVQFVQSMRGEIARALPSHVASPERIARIALTELRRVDHLAECTQESFGGALMTCAALGLEPGGVGGEAYLLPFWNKKVRAYEVTLVIGYQGMVRLFWQHPAAAGLAAHTVHEGDEFDFEYGLEPFLRHKPARTGRGKPTDYYAVAKMANGGSAFVVMNVEDIEAIRHRSKARDAGPWSTDYGLRRHGAQDLHSAVVQVAAEVC
B6: SSAP_102: SEQ ID NO: 271; Halomonas coralii (protein, listed as Halomonas coralii)
chain: TDQATAEPQEDLGKQLQQHSQRKPMPTTIQGMLKDDRFTGQIARALPKHITPDRISRIALTEVNKTPALGKCDPMSLFGSIIQSAQLGLELGGALGHAYLVPYKDQAQFIIGYRGMIDLARRSGQMVSLQAHTVHENDDFEFEYGLDEKLRHVPARGQRGPMIAVYAVAKLTGGGHQIEVMWKEDVDAIRQQSKAGNSGPWRDHYEEMAKKTAIRRLFKYLPVSVEMQKAVSLDEQAEAGVQDNNVFDGEFSYQEPE
B7: SSAP_138: SEQ ID NO: 307; unclassified Coprococcus (protein, listed as Coprococcus sp.)
chain: ANNIDLKQELAEQASKVPAKKDEEVKLTKSMTIPDMVKAMMPEIKKALPAVMTPERFTRIALSALNTTPALNQCTPMSFLAALMNAAQLGLEPNTPLGQAYLIPYKNHGTLECQFQIGYKGLIELAYRSGQMQTIQAQTVYENDEFAYQYGLEPVLVHRPAYSDRGEVKYFYGIFKTVNGGYGMAVMSRAEMDLYAKTYSKAYDSSYSPWKSNYEDMAKKTVIKQALKYAPIKTDFQRALSFDETIKKEISLDMSTVKNELLDVA
B8: SSAP_270: SEQ ID NO: 439; Lactococcus sp. DD01 (protein, listed as Lactococcus sp.)
chain: ANLTPTQTVLKSDAAKRKFEEVLGKKTNGFVGSLLSLVGSTNLKNVDSNSVMTAAMKAATLDLPIEPSLGFAYVIPYGREAQFQIGYKGLIQLAIRSGQVTKLNAGPVYENQFIKYDSLFEELEIDFSMPQGVEIAGYFASMELANGFRKIIYWDKEKVTAHGKRFSKSFNRSSSPWQTDFDAMATKTVLKAMLSTYAPLSTEMQQAIVADNESATPKDATPVTDDLVLEAVEDSKQIEENEIINDQVASENYQEPQGEPEVLDLEL
B9: SSAP_69: SEQ ID NO: 238 (protein)
chain: ETIDIKQELASQAQTDSKKEVKLTKAMSIAEMIKAMMPEIKRALPSMITPERFTRIALSALNNTPELQACTPMSFISALLNAAQLGLEINSPLGHAYLIPYKNKGVLECQFQIGYLGLIALAYRNELMQTIQAQCVYENDEFLYEYGLNPKLVHRPATSDRGEPVFFYGLFKMINSGFGFCVMSKQEMDEFARTYSKGLASSFSPWKTSYNEMAKKTVIKQALKYAPIKTDFQKALSTDESIKYAISEDMTEAVNEIVSQNTEVA
B10: SSAP_5: SEQ ID NO: 174 (protein)
chain: ANELGIFSVDNLNMTTIKQYLDGGGKASDAELVLLINLCKQNNMNPFMKEVYFIKYGNQPAQIVVSRDFYRKRAFQNPNFVGIEVGVIVLNKDGVLEHNEGTFKTHEQELVGAWARVHLKNTEIPVYVAVSYDEYVQMKDGHPNKMWTNKPCTMLGKVAESQALRMAFPAEFSGTYGEEEYPEPEKEPREVNGVKEPDRAQIESFDKEDYAAKKIEELKEKAQPQKEVVEETGEVIDEEPLEGF
B11: SSAP_252: SEQ ID NO: 421; Bacteroides pyogenes DSM 20611 = JCM 6294 (protein)
chain: QVADPQSVLNSAVIAATLDLPINPNLGFAAIVPYNDRKSGKCIAQFQLMYKGLVELCLRSGQFASLIDEVVYEGQIVKKNKFTGEYIFDEDAKTSNKVIGYMAYFRLVNGFEKTFYMTSEEVTAHAKAYSQSFKSGYGVWKDNFDIMARKTVLKLLLSKYAPKSIEMQRAITFDQAAVKGDLTETNVDEAEIEYIDNESGSDKIKQAAEDAVIQSQQKTLL
modifications: Bacteroides pyogenes
B12: SSAP_49: SEQ ID NO: 218 (protein)
chain: TNNQLATQTKRNITTDPSLLTGADIKKYFDPQNLLTEKQVGQALALCKGRNLNPFANEVYIVAYTNRNGGKEFSLIVSKEAFLKRAAQCKDYEGFEAGVVVVDSEGVMHERKGAIMLPEDTLIGGWARVHRKNFKVPVEIVVSREEYDKKQSTWNTMPATMIRKVALVNALREAFPEDLGNMYTEDDGGETFDRIKDVTPQESREDVVARKMAEIEQFNKEQETNHADPEPAQTEETIQGELLDGELEY

Each molecule was assayed on gene editing with Cas9 (assay: Screen of 322 new SSAP proteins, gene editing activity with Cas9 (Table 5)). Details: not given.
Type: cell-based
Parameters: Cas9 with SSAP activity: scale not given here
Summary of the method: (§1)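 Read-out is gene editing activity. Candidates come from sequence data mining, are made synthetically, and are tested alongside either nuclease-active Cas9 or catalytically dead dCas9.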

Row | Molecule | Cas9 with SSAP activity
1 | B1 | −1.797
2 | B2 | 0.465
3 | B3 | 1.789
4 | B4 | −1.791
5 | B5 | −1.057
6 | B6 | −0.118
7 | B7 | −1.429
8 | B8 | 0.154
9 | B9 | −5.286
10 | B10 | −0.026
11 | B11 | −0.275
12 | B12 | −0.515

Same assay, conditions: normalized

Row | Molecule | Cas9 with SSAP activity (normalized)
13 | B1 | −2.283
14 | B2 | 0.410
15 | B3 | 4.337
16 | B4 | −0.870
17 | B5 | −0.929
18 | B6 | −0.065
19 | B7 | −0.887
20 | B8 | 0.174
21 | B9 | −0.810
22 | B10 | −0.032
23 | B11 | −0.560
24 | B12 | −0.176

The molecules below were run on gene editing with dCas9 (assay: Screen of 322 new SSAP proteins, gene editing activity with dCas9 (Table 5)). Details: not given.
Type: cell-based
Parameters: dCas9 with SSAP activity: scale not given here
Summary of the method: as §1

Row | Molecule | dCas9 with SSAP activity
25 | B1 | −0.701
26 | B2 | −0.764
27 | B3 | −0.792
28 | B4 | −0.655
29 | B5 | −0.807
30 | B6 | −0.784
31 | B7 | −1.000
32 | B8 | −0.896
33 | B9 | −0.742
34 | B10 | −0.854
35 | B11 | −0.876
36 | B12 | −0.987

Same assay, conditions: normalized

Row | Molecule | dCas9 with SSAP activity (normalized)
37 | B1 | −0.555
38 | B2 | −0.279
39 | B3 | −0.867
40 | B4 | −0.866
41 | B5 | −0.626
42 | B6 | −0.325
43 | B7 | −0.320
44 | B8 | −0.293
45 | B9 | −0.240
46 | B10 | −0.392
47 | B11 | −0.635
48 | B12 | −0.289

What follows are molecules tested on gene editing with Cas9 and dCas9 (assay: Screen of 322 new SSAP proteins, activity across all experiments (Cas9 and dCas9, Table 5)). Details: not given.
Type: cell-based
Parameters: scale not given here
Summary of the method: as §1

Row | Molecule | Activity across all experiments
49 | B1 | −1.249
50 | B2 | −0.150
51 | B3 | 0.498
52 | B4 | −1.223
53 | B5 | −0.932
54 | B6 | −0.451
55 | B7 | −1.214
56 | B8 | −0.371
57 | B9 | −3.014
58 | B10 | −0.440
59 | B11 | −0.575
60 | B12 | −0.751
